These results are taken from article PMC10193008, “Discovery of an inhibitor of DNA-driven inflammation that preferentially targets the AIM2 inflammasome”.

For this series, the target named is T1, AIM2-GST (rhAIM2) (human, UniProt O14862 1-343).
T1 sequence: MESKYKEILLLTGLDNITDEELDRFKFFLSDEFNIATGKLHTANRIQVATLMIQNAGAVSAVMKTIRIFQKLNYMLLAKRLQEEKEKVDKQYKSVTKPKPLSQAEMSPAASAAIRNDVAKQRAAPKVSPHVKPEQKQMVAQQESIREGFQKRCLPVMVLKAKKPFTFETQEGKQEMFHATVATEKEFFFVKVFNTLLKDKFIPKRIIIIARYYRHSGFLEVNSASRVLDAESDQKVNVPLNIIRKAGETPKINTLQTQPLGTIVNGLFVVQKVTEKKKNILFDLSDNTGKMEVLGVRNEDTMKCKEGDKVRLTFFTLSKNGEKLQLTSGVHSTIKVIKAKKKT
As to the kind of experiment: EMSA; no inhibitor. To be noted: protein: commercial; tags: GST; label: none (SYBR Safe stain after electrophoresis); blunt. On the technique in general: In EMSA bound probe runs differently from free probe, usually more slowly.

B1: VACV72 dsDNA (dsDNA)
DNA 1: ATCCATCAGAAAGAGGTTTAATATTTTTGTGAGACCATCGAAGAGAGAAAGAGATAAAACTTTTTTACGACT
DNA 2: AGTCGTAAAAAAGTTTTATCTCTTTCTCTCTTCGATGGTCTCACAAAAATATTAAACCTCTTTCTGATGGAT
Turning to B1, the binding result was “binds”.
